Target: human IL13 (human) (UniProt P35225)
Experiment: cell-based or functional assay

Sequence of human IL13 (human) (P35225 35-146 limits assumed): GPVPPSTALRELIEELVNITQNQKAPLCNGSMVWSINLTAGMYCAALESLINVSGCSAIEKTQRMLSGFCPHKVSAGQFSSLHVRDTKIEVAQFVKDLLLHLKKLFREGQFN

inhibition of IL13-suppressed CD14 expression on human monocytes (complete inhibition): > 80 nM
Substance: anti-IL13 mAb JES10-5A2 (BD Biosciences-Pharmingen) (antibody)

Source: patent US20080008648A1
